The series is described as follows: yeast display, Sf9 membrane polyspecificity reagent, FACS + sequencing; frameworks hold sequencing errors. Summed up: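 Nanobodies came from a synthetic yeast display library in Saccharomyces cerevisiae BJ5465, induced with galactose for 36–48 hours and stained for 1 hour at 4 °C with 10% biotinylated, detergent-solubilized Sf9 membrane reagent. Cells were enriched on streptavidin microbeads and then FACS-sorted, with low and high (top ~1%) gates set on anti-HA fluorescence for expression and streptavidin fluorescence for reagent binding. Each polyreactivity label reflects the gate a clone came from. Genes were amplified by colony PCR, sequenced by MiSeq 2 × 250 and filtered by CDR length.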
Regarding “QVQLVESGGGLVQAGGSLRLSCAASGFTFTTYAMGWYRQAPGKEREFVAAITKRGGRTYYADSVKGRFTISRDYAKNTVYVQMNSLKPEDTAVYYCNKVVHSFPFPYRYDMDYWGQGTQVTVSS”, the “polyreactivity (PSR sort gate)” value was “high polyreactivity”.

Consider “QVQLVESGGGLVQAGGSLRLSCAASGFTFTTYAMGWYRQAPGKERELVARISRRSGSTYYADSVKGRFTISRDNAKYTVYLQMNSLKPEDTAVYYCNADVDRSTTIFDYWGQGTQVTVSS”, for which the “polyreactivity (PSR sort gate)” value was “high polyreactivity”.

Regarding “QVQLVESGGGLVQAGGSLRLSCAASGFTFTWYAMGWYRQAPGKERELVASISRSGGSTYYADSVKGRFTISRDNAKNTVYLQMNSLKPEDTAVYYCAAEIWLEYVGYDYWGQGTQVTVSS”, the “polyreactivity (PSR sort gate)” value was “high polyreactivity”.

For “QVQLVESGGGLVQAGGSLRLSCAASGFTFTWYVMGWYRQAPGKERELVAAISRSGGSTYYADSVKGRFTISRDNAKNTVYLQMNSLKPEDTAVYYCAAVGTSRYDYWGQGTQGTVSS”, the “polyreactivity (PSR sort gate)” value is “high polyreactivity”.

“QVQLVESGGGLVQAGGSLRLSCAASGFTFTYNAMGWYRKAPGKERELVAALTANGGGTNYADSVKGRFTISRDNAKNTVYLQMNSLKPEDTAVYYCAATIVVAVFESLGFYWYTEDNYWGQGTQVTVSS”: the “polyreactivity (PSR sort gate)” value is “low polyreactivity”.

Take “QVQLVESGGGLVQAGGSLRLSCAASGFTFTYNAMGWYRQAPGKERELVAGISWRGGTTYYADSVKGRFTISRDNAKNTVYLQMNSLKPEDTAVYYCAARNYYRGSGWPSNRGYYWGQGTQVTVSS”: the “polyreactivity (PSR sort gate)” value is “high polyreactivity”.

As to “QVQLVESGGGLVQAGGSLRLSCAASGFTFTYNDMGWYRQAPGKEREFVAAISSTGGSTNYADSVKGRFTISRDNAKNTVYLQMNSLKPEDTAGYYCATESYDSYGLYDYWGQGTQVTVSS”, the “polyreactivity (PSR sort gate)” value is listed as “low polyreactivity”.

With “QVQLVESGGGLVQAGGSLRLSCAASGFTFTYNDMGWYRQAPGKEREFVAAISSTGGSTYYADSVKGRFTISRDNAKNTVYLQMNSLIPEDTAVYYCAAEDSWYWDAWFDYWGQGTQVTVSS”, the “polyreactivity (PSR sort gate)” value is recorded as “low polyreactivity”.

Consider “QVQLVESGGGLVQAGGSLRLSCAASGFTFTYNDMGWYRQAPGKEREFVAAISSTGGSTYYADSVQGRFTISRDNAKNTVYLQMNSLKPEDTAVYYCAAEDSWYWDAWFDYWGQGTQVTVSS”, for which the “polyreactivity (PSR sort gate)” value is on record as “low polyreactivity”.

Turning to “QVQLVESGGGLVQAGGSLRLSCAASGFTFTYYAMGWYRQAPGKERELVAGISRSGGSTYYADSVKGRFTISRDNAKNTVYLQMNSLKPEDTAVYYCAATAYSPRGKRYDSWGQGTQVTVSS”, the “polyreactivity (PSR sort gate)” value is reported as “high polyreactivity”.

In the case of “QVQLVESGGGLVQAGGSLRLSCAASGFTFTYYTMGWYRQAPGKERELVAAISYSGGSTYYADSVKGRFTISRDNAKNTVYLQMNSLKPEDTAVYYCNAVTSWAGSLDYWGQGTQVTVSS”, the “polyreactivity (PSR sort gate)” value is “high polyreactivity”.

Regarding “QVQLVESGGGLVQAGGSLRLSCAASGFTFVDNAMGWYRQAPGKERELVAVIDFNDGTTYYADSVKGRFTISRDNAKNSVYLQMNSLKPEDTEVYYCNVDSSLILWVEYDYWGQGTQVTVSS”, the “polyreactivity (PSR sort gate)” value is listed as “low polyreactivity”.

Turning to “QVQLVESGGGLVQAGGSLRLSCAASGFTFVDYAMGWYRQAPGKERELVATINWDSGSTYADSVKGRFTISRDNAKNTVYLQMNSLKPEDSADYYCAADGDEIEVSFYSWGQGTQVTVSS”, the “polyreactivity (PSR sort gate)” value was “low polyreactivity”.

Turning to “QVQLVESGGGLVQAGGSLRLSCAASGFTFVGNAMGWSRQAPGKERELVAAIRWSSGSTYYADSVKGRFTISRDNAKNTVYLQMNSLKPEDTAVYYCAADYWTGITPDAIGDYWGQGTQVTVSS”, the “polyreactivity (PSR sort gate)” value is reported as “low polyreactivity”.

In the case of “QVQLVESGGGLVQAGGSLRLSCAASGFTFVGNAMGWYRQAPGQERELVAAITRGGSTYYADSVKGRFTISRDNAKNTVYLQMNSLKPEDTAVYYCNAELPVHWSWYDYWGQGTQVNVSS”, the “polyreactivity (PSR sort gate)” value is on record as “low polyreactivity”.

Regarding “QVQLVESGGGLVQAGGSLRLSCAASGFTFVINDMGWYRQAPVKERELVADITSGGDTYYADSVKGRFTISRVNAKNTVYLQMYRLKPEDTAVYYCAADIYPDWIYLLYGYWGQGTQVNVSS”, the “polyreactivity (PSR sort gate)” value is “low polyreactivity”.

For “QVQLVESGGGLVQAGGSLRLSCAASGFTFVIYAMGWYRQAPGKERELVAAIRSGGRTYYADSVKGRFTISRDNAKNTVYLQMNSLKPEDTAVYYCAAVPALKWYGYEYWGQGTQVTVSS”, the “polyreactivity (PSR sort gate)” value is “high polyreactivity”.

Turning to “QVQLVESGGGLVQAGGSLRLSCAASGFTFVNYAIGWYRQAPGKERELVAAIRRSGSRTYYADSVKGRFTISRDNAKNTVYLQMNSLKPEDTAVYYCAAVWYRLYGYWGQGTQVTVSS”, the “polyreactivity (PSR sort gate)” value is “low polyreactivity”.

Regarding “QVQLVESGGGLVQAGGSLRLSCAASGFTFVNYAMGWYRQAPGKERELVAASSRSGGRTYYADSVKGRFTISRDNAKNTVYLQKNSLKPEDTAVYYCARLLLSPEYGYWGQGTQVTVSS”, the “polyreactivity (PSR sort gate)” value is “high polyreactivity”.

As for “QVQLVESGGGLVQAGGSLRLSCAASGFTFVPYAMGWYRQAPGKERELVAAISSRGDSTYYADSVKGRFTISRDNAKNTVYLQMNSLKPEDTAVYYCNARTTPHMDYWGQGTQVTVSS”, the “polyreactivity (PSR sort gate)” value is reported as “low polyreactivity”.

As to “QVQLVESGGGLVQAGGSLRLSCAASGFTFVPYAMGWYRQAPGKERETNADSVKGRFTISRDNAKNTVYLQRNSLKPEDTAVYYCAADVWASRRYDYWGQGTQVTVSS”, the “polyreactivity (PSR sort gate)” value was “low polyreactivity”.

Consider “QVQLVESGGGLVQAGGSLRLSCAASGFTFVRYTMGWYRQSPGKEREMVAAINRSGGNTYYADSVKGRFTISRDNAKNTVYLQMNSLKPEDTAVYYCAAGYYVQVSLKDYYWGQGTQVTVSS”, for which the “polyreactivity (PSR sort gate)” value is given as “high polyreactivity”.

For the sequence “QVQLVESGGGLVQAGGSLRLSCAASGFTFVSNDMGWYRQAPGKERELVAAIRYRGGDTYYADSVKGRFTISRDNAKNTVYLQMNRLKPEDTAVYYCAVDVATYTAGWYYHGYDYWGQGTQVTVSS”, the “polyreactivity (PSR sort gate)” value was “low polyreactivity”.

“QVQLVESGGGLVQAGGSLRLSCAASGFTFVSNDMGWYRQEPGKERELVAAISQGGGSTYYADSVKGRFTISRDNAKNTVYLQINSLKPEDTAVYYCAAEDVYFGYDYWGQGTQVTVSS”: the “polyreactivity (PSR sort gate)” value was “low polyreactivity”.

“QVQLVESGGGLVQAGGSLRLSCAASGFTFVSYAMGWYRQAPGKERELVAAISKRGGSTSYADSVKGRFTISRDNAKNTVYLQMNSLKPEDTAVYYCNKRSYAWSPHVDYWGQGTQVTVSS”: the “polyreactivity (PSR sort gate)” value was “high polyreactivity”.

On to “QVQLVESGGGLVQAGGSLRLSCAASGFTFVSYAMGWYRQAPGKERELVAVISKSGSRTSYAESVKGRFTISRDNAKNTVYLQMNSLKPEDTAVYYCAVFYTRIGPRYDYWGQGTQVTVSS”, for which the “polyreactivity (PSR sort gate)” value is “high polyreactivity”.

“QVQLVESGGGLVQAGGSLRLSCAASGFTFVVNAMGWYRQAPGKERELVATIRSNGGSTYYADSVKGRFTISRDNAKNTVYLQMNSLKPEDTAVYYCNTDRKHQSGRESAEMDYWGQGTQVTVSS”: the “polyreactivity (PSR sort gate)” value is recorded as “low polyreactivity”.

For “QVQLVESGGGLVQAGGSLRLSCAASGFTFVYKDMGWYRQAPGKEREFVAAISSGGSTYYADSVKGRFTISRDNAKNTVYLQMNSLKPEDTAVYYCARRNPGPKHARYGYWGQGTQVNVSS”, the “polyreactivity (PSR sort gate)” value is “high polyreactivity”.

For the sequence “QVQLVESGGGLVQAGGSLRLSCAASGFTFVYYAMGCYRQAPGKERELVAAISRSGATTFYADSVKGRFTISRDNAKNTVYLQMNSLKPEDTAVYYCAVDSYAYYYGYWGQGTQVTVSS”, the “polyreactivity (PSR sort gate)” value was “high polyreactivity”.

As for “QVQLVESGGGLVQAGGSLRLSCAASGFTFVYYAMGWSRQAPGKERELVAAISRSGATTYYADSVKGRFTISRDNAKNTVYLQMNSLKPEDTAVYYCAAVYRHPRENWPDTRYGYWGQGTQVTVSS”, the “polyreactivity (PSR sort gate)” value is given as “high polyreactivity”.

“QVQLVESGGGLVQAGGSLRLSCAASGFTFVYYAMGWYRQAPGKERELVAAISGRGGSTYYADSVKGRFTISRDNAKNTVYLQMNSLKPEDTAVYYCATTYSWYYVPYKPHIYYYWGQGTQVTVSS”: the “polyreactivity (PSR sort gate)” value is listed as “low polyreactivity”.

For the sequence “QVQLVESGGGLVQAGGSLRLSCAASGFTFVYYAMGWYRQAPGKERELVATISGNGGRTYYADSVKGRFTISRDNAKNTVYLQMNSLKPEDTAVYYCAADVVTYLSYTLDYWGQGTQVTVSS”, the “polyreactivity (PSR sort gate)” value was “low polyreactivity”.

Turning to “QVQLVESGGGLVQAGGSLRLSCAASGFTFWAYAMGWYRPAPGKERELVARISGSGGRTYYADSVKGRFTISRDNAKNTVYLQMNSLKREDTAVYYCNAPYFNWYGYWGQGTQVTVSS”, the “polyreactivity (PSR sort gate)” value is recorded as “high polyreactivity”.

Regarding “QVQLVESGGGLVQAGGSLRLSCAASGFTFWAYAMGWYRQAPGKETELVAAISKTGGRTYYADSVKGRFTISRDNAKNTVYLQMISLKPEDTAVYYCAVDITGLYYPVDYWGQGTQVTVSS”, the “polyreactivity (PSR sort gate)” value is “high polyreactivity”.

“QVQLVESGGGLVQAGGSLRLSCAASGFTFWDYTMGWYRQAPGKERELVAAITRSGGRTYYADSVKGRFTISRDNAKNTVYLQMNSLKPEDTAVYYCAAKIWSKDEKHDYWGQGTQVTVSS”: the “polyreactivity (PSR sort gate)” value was “high polyreactivity”.

“QVQLVESGGGLVQAGGSLRLSCAASGFTFWFNAMGWYRQSRGTERELVPTIRRSGGTTYYADSVKGRFTISRDKAKNTVYLQMNSLKPEDTAVYYCAADDYYYPGTVYYFTPGYNYWGQGTQVTVSS”: the “polyreactivity (PSR sort gate)” value is “low polyreactivity”.

Consider “QVQLVESGGGLVQAGGSLRLSCAASGFTFWKYAMGWYRQAPGKERELVAAISVSGGRTYYADSVKGRFTISRDNAKNTVYLQMNSLKPEDTAVYYCNATPWRPYVGGEYWGQGTQVTVSS”, for which the “polyreactivity (PSR sort gate)” value is reported as “high polyreactivity”.

In the case of “QVQLVESGGGLVQAGGSLRLSCAASGFTFWLYAMGWYRQAPGKERELVAAITSGGGTYYADSVKGRFTISRDNEKNTVYLQMNSLKPEDTAVYYCAAEWVRDYEQGVSSFGFYYWGQGTQVTVSS”, the “polyreactivity (PSR sort gate)” value is listed as “low polyreactivity”.

For the sequence “QVQLVESGGGLVQAGGSLRLSCAASGFTFWPYTMGWYRQAPGKERELVAVISSSGGSTYYADSVKGRFTISRDNAKNTVYLQMNSLKPEDTAVYYCNARRRYGHVDYWGQGTQVTVSS”, the “polyreactivity (PSR sort gate)” value is recorded as “high polyreactivity”.

Turning to “QVQLVESGGGLVQAGGSLRLSCAASGFTFWQYAMGWYRQAPGKERELVAAISGSGSSTYYADSVKGRFTISRDNAKNTVYFQMNSLKPEDTAVYYCATAISRYGRYYYWGQGTQVTVSS”, the “polyreactivity (PSR sort gate)” value was “high polyreactivity”.

“QVQLVESGGGLVQAGGSLRLSCAASGFTFWQYAMGWYRQAPGKERELVAAITSSGTSTNYADSVKGRFTISGDNAKKTVYLQMNSLKPEETAVYYCAADLGYYDLYYWGQGTQVTVSS”: the “polyreactivity (PSR sort gate)” value is recorded as “low polyreactivity”.
